Test results published in US11008402 (dated 2021).
Values joined by “and” are separate entries in the source; they are usually repeats but may differ in a detail not shown here. Identical values can stand only once. Like-named read-outs stand apart in the source and are kept apart here.

Columns and labels:
HER3 359-643-Fc = molecular target: T1, HER3 359-643-Fc (human); experiment: ELISA
T1 chain: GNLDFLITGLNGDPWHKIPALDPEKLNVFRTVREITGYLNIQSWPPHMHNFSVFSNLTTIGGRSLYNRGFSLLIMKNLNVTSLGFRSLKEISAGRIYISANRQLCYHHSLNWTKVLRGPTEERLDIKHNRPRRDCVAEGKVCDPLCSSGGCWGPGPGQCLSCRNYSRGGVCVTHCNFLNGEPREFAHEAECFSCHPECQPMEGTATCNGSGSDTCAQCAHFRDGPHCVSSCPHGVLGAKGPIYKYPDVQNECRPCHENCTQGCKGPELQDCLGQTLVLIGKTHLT

HER3-Fc ECD [1] = molecular target: HER3-Fc ECD (human); experiment: ELISA
HER3-His ECD [2] = molecular target: HER3-His ECD (human); experiment: ELISA
HER3 329-550-Fc = molecular target: T2, HER3 329-550-Fc (human); experiment: ELISA
T2 chain: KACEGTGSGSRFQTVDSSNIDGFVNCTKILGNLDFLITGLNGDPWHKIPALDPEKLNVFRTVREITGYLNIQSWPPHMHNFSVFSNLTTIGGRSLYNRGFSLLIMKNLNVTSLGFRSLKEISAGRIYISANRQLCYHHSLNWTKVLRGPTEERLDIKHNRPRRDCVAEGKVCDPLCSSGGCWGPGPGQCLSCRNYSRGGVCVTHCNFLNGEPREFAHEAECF

HER3 20-531-Fc = HER3 20-531-Fc (human); experiment: ELISA
HER3-His ECD [3] = molecular target: HER3-His ECD (human); experiment: ELISA; remark: listed apart in the source
HER3-His ECD [4] = molecular target: HER3-His ECD (human); experiment: ELISA; remark: listed apart in the source
HER3 458-643-Fc = molecular target: T3, HER3 458-643-Fc (human); experiment: ELISA
T3 chain: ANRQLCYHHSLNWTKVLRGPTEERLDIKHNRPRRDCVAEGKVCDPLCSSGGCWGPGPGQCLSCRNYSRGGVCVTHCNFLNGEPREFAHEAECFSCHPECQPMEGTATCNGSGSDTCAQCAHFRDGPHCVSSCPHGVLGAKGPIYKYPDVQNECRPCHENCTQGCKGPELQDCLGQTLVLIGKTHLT

HER3 359-587-Fc = molecular target: T4, HER3 359-587-Fc (human); experiment: ELISA
T4 chain: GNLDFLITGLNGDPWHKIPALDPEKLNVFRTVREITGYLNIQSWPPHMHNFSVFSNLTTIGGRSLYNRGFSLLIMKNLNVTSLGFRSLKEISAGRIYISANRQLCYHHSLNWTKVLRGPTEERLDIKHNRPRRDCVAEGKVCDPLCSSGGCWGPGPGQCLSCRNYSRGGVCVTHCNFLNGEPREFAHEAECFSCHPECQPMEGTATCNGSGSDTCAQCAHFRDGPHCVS

HER3 DIV-Fc = molecular target: T5, HER3 DIV-Fc (human); experiment: ELISA
T5 chain: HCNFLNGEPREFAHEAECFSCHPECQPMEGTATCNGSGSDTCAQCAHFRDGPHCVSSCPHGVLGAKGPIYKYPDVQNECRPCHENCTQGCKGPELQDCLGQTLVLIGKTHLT

HER3 20-358-Fc = molecular target: T6, HER3 20-358-Fc (human); experiment: ELISA
T6 chain: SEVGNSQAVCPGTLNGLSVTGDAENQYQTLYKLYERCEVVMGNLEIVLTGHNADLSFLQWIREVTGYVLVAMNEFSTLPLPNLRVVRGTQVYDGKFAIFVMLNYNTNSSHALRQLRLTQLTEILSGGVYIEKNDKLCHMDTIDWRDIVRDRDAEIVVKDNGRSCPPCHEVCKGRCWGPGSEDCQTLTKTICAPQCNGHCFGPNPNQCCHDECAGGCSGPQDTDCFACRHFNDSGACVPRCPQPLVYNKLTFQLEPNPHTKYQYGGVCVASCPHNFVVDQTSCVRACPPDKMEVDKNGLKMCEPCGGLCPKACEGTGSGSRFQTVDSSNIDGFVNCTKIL

HER3 20-550-Fc = HER3 20-550-Fc (human); experiment: ELISA
HER3 395-643-Fc = molecular target: T7, HER3 395-643-Fc (human); experiment: ELISA
T7 chain: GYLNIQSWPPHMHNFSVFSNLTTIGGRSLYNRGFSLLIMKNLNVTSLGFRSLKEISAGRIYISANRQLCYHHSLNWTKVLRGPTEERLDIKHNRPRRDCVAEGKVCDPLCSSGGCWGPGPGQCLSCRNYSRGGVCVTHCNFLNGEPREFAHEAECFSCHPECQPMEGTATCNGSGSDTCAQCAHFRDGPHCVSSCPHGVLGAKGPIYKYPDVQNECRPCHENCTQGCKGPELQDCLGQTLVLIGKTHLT

HER3 (cell surface) [5] = molecular target: HER3 (cell surface) (human); experiment: FACS, FaDu
HER3 (cell surface) [6] = molecular target: HER3 (cell surface) (human); experiment: FACS, FaDu; remark: listed apart in the source
HER3 (cell surface) [7] = molecular target: HER3 (cell surface) (human); experiment: FACS, FaDu; remark: listed apart in the source
HER3 (cell surface) [8] = molecular target: HER3 (cell surface) (human); experiment: FACS, MCF-7
HER3 (cell surface) [9] = molecular target: HER3 (cell surface) (human); experiment: FACS, SKBR-3
HER3-His ECD [10] = molecular target: HER3-His ECD (human); experiment: other, QCM Attana 25C
HER3-Fc ECD [11] = molecular target: HER3-Fc ECD (human); experiment: other, QCM Attana bivalent

- binding result (HER3 359-643-Fc): no binding
- EC50 (HER3-Fc ECD [1]): 0.27 nM and 0.4 nM
- EC50 (HER3-His ECD [2]): 0.33 nM
- binding result (HER3 329-550-Fc): no binding
- binding result (HER3 20-531-Fc): no binding
- EC50 (HER3-His ECD [3]): 0.33 nM and 0.54 nM
- EC50 (HER3-His ECD [4]): 0.23 nM
- binding result (HER3 458-643-Fc): no binding
- binding result (HER3 359-587-Fc): no binding
- binding result (HER3 DIV-Fc): no binding
- binding result (HER3 20-358-Fc): no binding
- binding result (HER3 20-550-Fc): no binding
- binding result (HER3 395-643-Fc): no binding
- EC50 (HER3 (cell surface) [5]): 0.3 nM
- EC50 (HER3 (cell surface) [6]): 0.006 nM
- EC50 (HER3 (cell surface) [7]): 0.003 nM
- EC50 (HER3 (cell surface) [8]): 0.021 nM
- EC50 (HER3 (cell surface) [9]): 0.022 nM
- Kd (HER3-His ECD [10]): 11.2 nM
- Kd (HER3-Fc ECD [11]): 0.22 nM
B1: IgG 3-43 (antibody, V domains shown)
VH: QVQLQQSGPGLVKPSQTLSLTCAISGDSVSSNRAAWNWIRQSPSRGLEWLGRTYYRSKWYNDYAQSLKSRITINPDTPKNQFSLQLNSVTPEDTAVYYCARDGQLGLDALDIWGQGTMVTVSS
VL: QAGLTQPPAVSVAPGQTASITCGRDNIGSRSVHWYQQKPGQAPVLVVYDDSDRPAGIPERFSGSNYENTATLTISRVEAGDEADYYCQVWGITSDHVVFGGGTKLTVLG
